Experimental data reported in the supplement of paper PMC9170038.

Tested on: MS2 coat protein
Experiment: apparent KD of MS2 coat protein; designed switch direction (-1 OFF switch, 1 ON switch): -1; higher = weaker reporter binding
Procedure, shortened: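 An oligonucleotide input, 200 uM small-molecule ligand, or no input was present during titration of SNAP-549-labelled MS2 coat protein, which was doubled from 0.7 or 1.5 nM to 3 µM. Designed RNA switches had been transcribed on Illumina chips by stalled E. coli RNA polymerase. Apparent KD per design is the median over clusters of curves fitted to normalised cluster fluorescence.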

[1] = input ligand: microRNA oligo, concentration not stated
[2] = Eterna round: R95, input ligand: microRNA oligo, concentration not stated
[3] = Eterna round: R95, input ligand: FMN 200 uM
[4] = Eterna round: R95, input ligand: none

Sequence	apparent KD of MS2 coat protein (input ligand: FMN 200 uM) [nM]	apparent KD of MS2 coat protein (input ligand: none) [nM]	apparent KD of MS2 coat protein [2] [nM]	other results
CUUAGUUGGUAAGGAUAUCCUACAUUAUUCUGACCCGUGCAAGCUACAUGAGGAUCACCCAUGUGGGAGAAGGUGCGUUAACGU [Design 7] (Eterna round: R96, puzzle: Exclusion NG 2)	53.5	46		apparent KD of MS2 coat protein [1]: 42.1 nM
CUUAUGUCAGGAUAUUAGUAGUAAAUAAAUAAAAUUAUUACUGAGAAGGGACAUGAGGAUCACCCAUGUUCCUC [Salish 062 v4] (Eterna round: R97, puzzle: Exclusion 4)	96	23.9		
CUUAUGUGAGGAUAUCAGUAGUGAUACGAUAGUAUUACUGCUGAGAAGGCACAUGAGGAUCACCCAUGUUCCUU [Exclusion 4 - Mod Omei Ex4 344 mod v.3] (puzzle: Exclusion 4)			21.9	
CUUCAGUGAGGAUAUGGCAUGCGCUGAUAAGCGCUCUCACGCCAGAAGGCACAUGAGGAUCACCCAUGUAAAAC [Eddionce] (puzzle: Exclusion 4)			41.3	
CUUCAUCCACCAGAGCUCACACUUAUACCUGCUCUGGUGACAUGAGGAUCACCCAUGUUUUUUGCCCGUCUUAUCUU [Sensor v3, turn-off variant 2 (MOD of Leso)] (puzzle: Sensor v3, turn-off variant 2)			19.8	apparent KD of MS2 coat protein [3]: 149 nM; apparent KD of MS2 coat protein [4]: 207 nM
CUUGAGCAGGUAGGAUAUACGAUGUGUCGGCGAGUAGAAGGACCUGCGAUCCACUUGAGGAUCACCCAAGUUCGCAGGAGAACA [Mutated MS2 EX1.18] (Eterna round: R96, puzzle: Exclusion NG 1)	103	33.4		apparent KD of MS2 coat protein [1]: 22 nM
CUUGUGUAAGGAUAUCGAGUAGAACGCUCGAGUUCUGAGCUCGAGAAGGUACAUGAGGAUCACCCAUGUUAAAA [Atusgete] (puzzle: Exclusion 4)			42.2	
CUUGUUUAUGUAGGAUAUGCCUGGCGUGCCUUUGCAGAAGGACAUGAGGAUCACCCAUGUAACAUGAGGCUCACCCUUGUCGCA [salish99_ExNG1_r04_115] (Eterna round: R96, puzzle: Exclusion NG 1)	183	162		apparent KD of MS2 coat protein [1]: 62 nM
CUUGUUUAUGUAGGAUAUGCCUGGCGUGCCUUUGCAGAAGGACAUGAGGAUCACCCAUGUACAUGAGGAUCACCCAUGUUCGCA [salish99_ExNG1_r04_102] (Eterna round: R96, puzzle: Exclusion NG 1)	836	825		apparent KD of MS2 coat protein [1]: 455 nM
CUUUAGCUAGGAUAUACAUGAGGAUCACCCAUGUUAGCGGCCAAUUGGACCGCGGGUUGUAGAAGGAGCAUUAA [Atantiza] (puzzle: Exclusion 3)			29.8	
CUUUCGUGAGGAUAUCAGUAGUAAAUAAAUAAAAUUACUACUGAGAAGGCACAUGAGGAUCACCCAUGUUCCUU [salish99_ex3_r3_095] (puzzle: Exclusion 4)			12.9	
CUUUUGUGAGGAUAUCAGUAGUAAAUAAAUAAAAUUACUUCUGAGAAGGCACAUGAGGAUCACCCAUGUUCCUC [salish99_ex3_r3_087] (puzzle: Exclusion 4)			35.7	
CUUUUGUGAGGAUAUCAGUAGUAAAUAAAUAAAUUUACUACUGAGAAGGCACAUGAGGAUCACCCAUGUUCCUC [salish99_ex3_r3_084] (puzzle: Exclusion 4)			45.4	
CUUUUGUGAGGAUAUCAGUAGUAAUACAAUAGUAUUACUACUGAGAAGGCACAUGAGGAUCACCCAUGUUCUUC [Ex4 344 Omei mod 2] (puzzle: Exclusion 4)			23.2	
CUUUUGUGAGGAUAUCAGUAGUAAUACAAUAGUAUUACUAUUGAGAAGGCACAUGAGGAUCACCCAUGUUCCUC [Ex4 344 Omei mod 6] (puzzle: Exclusion 4)			38	
CUUUUGUGAGGAUAUCAGUAGUAAUAUAAUAGUAUUACUACUGAGAAGGCACAUGAGGAUCACCCAUGUUCCUC [Ex4 344 Omei mod 8] (puzzle: Exclusion 4)			27.9	
CUUUUGUGAGGAUAUCAGUAGUAGAACAAUAGUACUACUACUGAGAAGGCACAUGAGGAUCACCCAUGUUUCUC [Fiskers Ex 4 Super stable 44 mod 4] (puzzle: Exclusion 4)			58.7	
CUUUUGUGAGGAUAUCAGUAGUUAAUAAAUAAAAUUACUACUGAGAAGGCACAUGAGGAUCACCCAUGUUCCUC [salish99_ex3_r3_075] (puzzle: Exclusion 4)			39.4	
CUUUUGUGAGGAUAUUAAUAGUAAGUAAAUAAAAUUAUUACUAAGAAGGCACAUGAGGAUCACCCAUGUUCCUC [EX4 #82] (Eterna round: R97, puzzle: Exclusion 4)	102	63.4		

Sequence	apparent KD of MS2 coat protein (input ligand: FMN 200 uM) [nM]	apparent KD of MS2 coat protein (input ligand: none) [nM]	apparent KD of MS2 coat protein [2] [nM]	other results
CUUUUGUGAGGAUAUUAGUAGUAAAUAAAUAAAAUUACUUCUGAGAAGGCACAUGAGGAUCACCCAUGUUCCUC [salish99_ex4_r3_063] (puzzle: Exclusion 4)			36.9	
CUUUUGUGAGGAUAUUAUUAGUAAAUAAAUAAAAUUACUACUGAGAAGGCACAUGAGGAUCACCCAUGUUCCUC [salish99_ex4_r3_048] (puzzle: Exclusion 4)			28.8	
GAAAACGAAGAGGAUAUUUGAUAUCAUAGCUUCAAAGAAGGCUUCACAUGAGGAUCACCCAUGUGAUCUUCAAU [Mat - Exclusion 6 - JL Mod - D19] (Eterna round: R97, puzzle: Exclusion 6)	116	23.8		
GAAAACGCAAAGGAUAUUACAGAUCAAAGCUGCUGAGAAGGUUGCACAUGAGGAUCACCCAUGUGGUCUUUCAA [Mod of Quesina 18 - Jieux - Exclusion 6] (Eterna round: R97, puzzle: Exclusion 6)	213	27.3		
GAAAACGUAGGAUAUUAAUACUUAGACAUGAGGAUCACCCAUGUUUGGUGGGUUUAAGAAUGAGAAGGGCGAUGAA [EX5 #7] (Eterna round: R97, puzzle: Exclusion 5)	222	189		
GAAAACUCAGGAUAUGCGUGAGAAAACUUGAGGAUCACCCAAGUGUGGUCCCGAUCUAAAGCAGAAGGGAGCAAAA [Lebidiraus] (Eterna round: R97, puzzle: Exclusion 5)	1770	353		
GAAAAGAACGAGGAUAUGUUGGUGCAUACACUUGCAGAAGGCGUUACUUGAGGAUCACCCAAGUGAGACCGAGU [Cetelege] (Eterna round: R97, puzzle: Exclusion 6)	273	124		
GAAAAGAGAGGAUAUACAAGAAGAAAAGAAAAGAAAAGAAAACAUGAGGAUCACCCAUGUAGAAGGCUCAAAAG [Default title] (puzzle: Exclusion 2)			12.7	apparent KD of MS2 coat protein [3]: 18.2 nM; apparent KD of MS2 coat protein [4]: 20.3 nM
GAAAAGGUAGGAUAUACGAAAAAAAAGGGAAGAAAAAAAACACAUGAGGAUCACCCAUGUAGAAGGACCAAAAG [salish99_ex2_r3_064] (puzzle: Exclusion 2)			21.6	apparent KD of MS2 coat protein [3]: 34.4 nM; apparent KD of MS2 coat protein [4]: 20.6 nM
GAAAAGGUAGGAUAUACGAAAAAAAAGGGUAGAAAAAAUACACAUGAGGAUCACCCAUGUAGAAGGACCAAAAG [salish99_ex2_r3_073] (Eterna round: R96, puzzle: Exclusion 2)				apparent KD of MS2 coat protein [1]: 26.7 nM
GAAAAGGUAGGAUAUACGAAAAAAAAGGGUAGAAAAAAUACACAUGAGGAUCACCCAUGUAGAAGGACCAAAAG [salish99_ex2_r3_073] (puzzle: Exclusion 2)			23.9	apparent KD of MS2 coat protein [3]: 138 nM; apparent KD of MS2 coat protein [4]: 29.7 nM
GAAAAGGUAGGAUAUACGAAAAAAAAGGGUAGAUAAAAAACACAUGAGGAUCACCCAUGUAGAAGGACCAAAAG [salish99_ex2_r3_078] (puzzle: Exclusion 2)			41.8	apparent KD of MS2 coat protein [3]: 101 nM; apparent KD of MS2 coat protein [4]: 29.3 nM
GAAAAGGUAGGAUAUACGAAAAAAAAGGGUAGUAAAAAAACACAUGAGGAUCACCCAUGUAGAAGGACCAAAAG [salish99_ex2_r3_079] (puzzle: Exclusion 2)			20.9	apparent KD of MS2 coat protein [3]: 35.7 nM; apparent KD of MS2 coat protein [4]: 18.6 nM
GAAAAUAGUGAGGAUAUAUCACGGAUACCCGAGAUAGAAGGCACUACAUGAGGAUCACCCAUGUUCGGGUGUCC [Areleon] (Eterna round: R97, puzzle: Exclusion 6)	107	79.3		
GAAAGGUAAGGAUAUGCGACUACGGUGAGAUGGUUGACCUGACAUGAGGAUCACCCAUGUAGAAGGUGCUCAAU [Eternabot (L2) Solution 33] (Eterna round: R97, puzzle: Exclusion 2)	67.8	64.2		
GAAGCACAUGAGGAUCACCCAUGUGAGGAUAUCCGUCUGGUCCGGCCGGGCCAGUACCGGAGAAGGCGCGUCGA [Excls1-Va] (puzzle: Exclusion 1)			27.6	
GAAUAACAUGAGGAUCACCCAUGUUAGGAUAUGACGUCGUUUAGUCUUUAAACGAGCGUUAGAAGGAACAGGUG [Eternabot (L1) Solution 11] (Eterna round: R97, puzzle: Exclusion 1)	70.8	56.8		
GAAUAGCAAGCGAGAUCCCACAUGAGGAUCACCCAUGUGCUCGUCUUAUAAAGUACUGUGACGAAAGUCACGGUACA [Mat - Sensor, turn-off var - Eli Mod - D12] (Eterna round: R97, puzzle: Sensor, turn-off variant 1)	14.6	17.8		
